Test results taken from PMC4691852 (Molecular cell, 2013).
Where two headings read alike, the source gives them in different places.

T1: MazF (Bacillus subtilis, UniProt P96622 1-116)
T1 sequence: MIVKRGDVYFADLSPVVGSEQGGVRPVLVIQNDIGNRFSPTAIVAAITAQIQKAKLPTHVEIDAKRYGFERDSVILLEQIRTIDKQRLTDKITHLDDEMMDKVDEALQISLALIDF

B1: Bacillus subtilis MazE (antitoxin) coexpressed with MazF from modified pRSFDuet-1 (natural protein)
chain: MSESSARTEMKISLPENLVAELDGVAMREKRSRNELISQAVRAYVSERTTRHNRDLMRRGYMEMAKINLNISSEAHFAECEAETTVERLVSGG
modifications: selenomethionine-labelled (for the crystals)
B2: Bacillus subtilis MazF (toxin, mRNA interferase), expressed alone from pET-SUMO (enzyme)
chain: MIVKRGDVYFADLSPVVGSEQGGVRPVLVIQNDIGNRFSPTAIVAAITAQIQKAKLPTHVEIDAKRYGFERDSVILLEQIRTIDKQRLTDKITHLDDEMMDKVDEALQISLALIDF
B3: Bacillus subtilis MazF coexpressed with MazE from modified pRSFDuet-1 (enzyme)
chain: MIVKRGDVYFADLSPVVGSEQGGVRPVLVIQNDIGNRFSPTAIVAAITAQIQKAKLPTHVEIDAKRYGFERDSVILLEQIRTIDKQRLTDKITHLDDEMMDKVDEALQISLALIDF
modifications: selenomethionine-labelled (for the crystals)

How the values were obtained:
[1] = target: T1, MazF; test: ITC
[2] = target: the molecule itself; test: crystal structure
[3] = target: the molecule itself; test: crystal structure; remark: listed apart in the source

Binder	stoichiometry N [2]	further results
UUUACAUAA (ssRNA, 2'-deoxyuridine at position 3 (other residues ribo)) [uncleavable 9-mer RNA UUdUACAUAA]	–	Kd [1]: 64 nM
B1	2	–
B2	–	stoichiometry N [3]: 2
B3	2	–
